The source of these data is patent publication US20200317768A1 (published 2020).

This assay has as its target T1, human FcγRIIaR extracellular domain, His-tagged (human, UniProt P12318 34-217).
T1 construct: also called human FcγRIIa (type R); FcgRIIaR; not shown: C-terminal His-tag
T1 chain: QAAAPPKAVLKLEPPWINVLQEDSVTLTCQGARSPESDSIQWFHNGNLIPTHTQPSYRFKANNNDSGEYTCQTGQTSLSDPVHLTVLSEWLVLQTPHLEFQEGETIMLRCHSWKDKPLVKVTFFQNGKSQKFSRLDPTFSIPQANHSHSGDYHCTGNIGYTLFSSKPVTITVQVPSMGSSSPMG
Put plainly: SPR (BIACORE); KD of SG1 divided by KD of variant.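 Note: relative to parent M103205H795-SG1 carrying the SG1 human heavy chain constant region.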

B1: M103205H795-MY448/M103202L889-SK1 (antibody, human IgG1, kappa)
heavy: QVTLKESGPVLVKPTETLTLTCTVSGIDLSHDDISWVRQAPGKGLEWVGIISYAGSTYYASWAKGRLTISKDTSKNQVVLTMTNMDPVDTATYYCARGVPAYSHGGDLWGQGTLVTVSSASTKGPSVFPLAPSSKSTSGGTAALGCLVKDYFPEPVTVSWNSGALTSGVHTFPAVLQSSGLYSLSSVVTVPSSSLGTQTYICNVNHKPSNTKVDKKVEPKSCDKTHTCPPCPAKELLTGPSVFLFPPKPKDTLMISRTPEVTCVVVDVSDEDPEVKFNWYVDGVEVHNAKTKPREEQYNSTYRVVSVLTVLHQDWLNGKEYKCKVSNKALPKPIEKTISKAKGQPREPQVYTLPPSREEMTKNQVSLTCLVKGFYPSDIAVEWESNGQPENNYKTTPPVLDSDGSFFLYSKLTVDKSRWQQGNVFSCSVMHEALHNHYTQKSLSLSP
light: DIVMTQSPATLSLSPGERATLSCTSSQSVYHANWLSWFQQKPGQPPKLLIYWASTLAYGVPSRFSGSGSGTDFTLTISSLQPEDAATYYCAGGYGGGRYAFGQGTKVEIKRTVAAPSVFIFPPSDEQLKSGTASVVCLLNNFYPREAKVQWKVDNALQSGNSQESVTEQDSKDSTYSLSSTLTLSKADYEKHKVYACEVTHQGLSSPVTKSFNRGEC
notes: copies: 2 + 2
Consider B1, for which the “KD fold (SG1 = 1)” value was 0.5 fold.

B2: M103205H795-MY465/M103202L889-SK1 (antibody, human IgG1, kappa)
heavy: QVTLKESGPVLVKPTETLTLTCTVSGIDLSHDDISWVRQAPGKGLEWVGIISYAGSTYYASWAKGRLTISKDTSKNQVVLTMTNMDPVDTATYYCARGVPAYSHGGDLWGQGTLVTVSSASTKGPSVFPLAPSSKSTSGGTAALGCLVKDYFPEPVTVSWNSGALTSGVHTFPAVLQSSGLYSLSSVVTVPSSSLGTQTYICNVNHKPSNTKVDKKVEPKSCDKTHTCPPCPKPELLTGPSVFLFPPKPKDTLMISRTPEVTCVVVDVSDEDPEVKFNWYVDGVEVHNAKTKPREEQYNSTYRVVSVLTVLHQDWLNGKEYKCKVSNKALPKPIEKTISKAKGQPREPQVYTLPPSREEMTKNQVSLTCLVKGFYPSDIAVEWESNGQPENNYKTTPPVLDSDGSFFLYSKLTVDKSRWQQGNVFSCSVMHEALHNHYTQKSLSLSP
light: DIVMTQSPATLSLSPGERATLSCTSSQSVYHANWLSWFQQKPGQPPKLLIYWASTLAYGVPSRFSGSGSGTDFTLTISSLQPEDAATYYCAGGYGGGRYAFGQGTKVEIKRTVAAPSVFIFPPSDEQLKSGTASVVCLLNNFYPREAKVQWKVDNALQSGNSQESVTEQDSKDSTYSLSSTLTLSKADYEKHKVYACEVTHQGLSSPVTKSFNRGEC
notes: copies: 2 + 2
As to B2, the “KD fold (SG1 = 1)” value was determined as 1.8 fold.

B3: M103205H795-MY463/M103202L889-SK1 (antibody, human IgG1, kappa)
heavy: QVTLKESGPVLVKPTETLTLTCTVSGIDLSHDDISWVRQAPGKGLEWVGIISYAGSTYYASWAKGRLTISKDTSKNQVVLTMTNMDPVDTATYYCARGVPAYSHGGDLWGQGTLVTVSSASTKGPSVFPLAPSSKSTSGGTAALGCLVKDYFPEPVTVSWNSGALTSGVHTFPAVLQSSGLYSLSSVVTVPSSSLGTQTYICNVNHKPSNTKVDKKVEPKSCDKTHTCPPCPHPELLTGPSVFLFPPKPKDTLMISRTPEVTCVVVDVSDEDPEVKFNWYVDGVEVHNAKTKPREEQYNSTYRVVSVLTVLHQDWLNGKEYKCKVSNKALPKPIEKTISKAKGQPREPQVYTLPPSREEMTKNQVSLTCLVKGFYPSDIAVEWESNGQPENNYKTTPPVLDSDGSFFLYSKLTVDKSRWQQGNVFSCSVMHEALHNHYTQKSLSLSP
light: DIVMTQSPATLSLSPGERATLSCTSSQSVYHANWLSWFQQKPGQPPKLLIYWASTLAYGVPSRFSGSGSGTDFTLTISSLQPEDAATYYCAGGYGGGRYAFGQGTKVEIKRTVAAPSVFIFPPSDEQLKSGTASVVCLLNNFYPREAKVQWKVDNALQSGNSQESVTEQDSKDSTYSLSSTLTLSKADYEKHKVYACEVTHQGLSSPVTKSFNRGEC
notes: copies: 2 + 2
With B3, the “KD fold (SG1 = 1)” value stood at 2.2 fold.

B4: M103205H795-MY464/M103202L889-SK1 (antibody, human IgG1, kappa)
heavy: QVTLKESGPVLVKPTETLTLTCTVSGIDLSHDDISWVRQAPGKGLEWVGIISYAGSTYYASWAKGRLTISKDTSKNQVVLTMTNMDPVDTATYYCARGVPAYSHGGDLWGQGTLVTVSSASTKGPSVFPLAPSSKSTSGGTAALGCLVKDYFPEPVTVSWNSGALTSGVHTFPAVLQSSGLYSLSSVVTVPSSSLGTQTYICNVNHKPSNTKVDKKVEPKSCDKTHTCPPCPIPELLTGPSVFLFPPKPKDTLMISRTPEVTCVVVDVSDEDPEVKFNWYVDGVEVHNAKTKPREEQYNSTYRVVSVLTVLHQDWLNGKEYKCKVSNKALPKPIEKTISKAKGQPREPQVYTLPPSREEMTKNQVSLTCLVKGFYPSDIAVEWESNGQPENNYKTTPPVLDSDGSFFLYSKLTVDKSRWQQGNVFSCSVMHEALHNHYTQKSLSLSP
light: DIVMTQSPATLSLSPGERATLSCTSSQSVYHANWLSWFQQKPGQPPKLLIYWASTLAYGVPSRFSGSGSGTDFTLTISSLQPEDAATYYCAGGYGGGRYAFGQGTKVEIKRTVAAPSVFIFPPSDEQLKSGTASVVCLLNNFYPREAKVQWKVDNALQSGNSQESVTEQDSKDSTYSLSSTLTLSKADYEKHKVYACEVTHQGLSSPVTKSFNRGEC
notes: copies: 2 + 2
For B4, the “KD fold (SG1 = 1)” value came out at 4.2 fold.

B5: M103205H795-MY461/M103202L889-SK1 (antibody, human IgG1, kappa)
heavy: QVTLKESGPVLVKPTETLTLTCTVSGIDLSHDDISWVRQAPGKGLEWVGIISYAGSTYYASWAKGRLTISKDTSKNQVVLTMTNMDPVDTATYYCARGVPAYSHGGDLWGQGTLVTVSSASTKGPSVFPLAPSSKSTSGGTAALGCLVKDYFPEPVTVSWNSGALTSGVHTFPAVLQSSGLYSLSSVVTVPSSSLGTQTYICNVNHKPSNTKVDKKVEPKSCDKTHTCPPCPFPELLTGPSVFLFPPKPKDTLMISRTPEVTCVVVDVSDEDPEVKFNWYVDGVEVHNAKTKPREEQYNSTYRVVSVLTVLHQDWLNGKEYKCKVSNKALPKPIEKTISKAKGQPREPQVYTLPPSREEMTKNQVSLTCLVKGFYPSDIAVEWESNGQPENNYKTTPPVLDSDGSFFLYSKLTVDKSRWQQGNVFSCSVMHEALHNHYTQKSLSLSP
light: DIVMTQSPATLSLSPGERATLSCTSSQSVYHANWLSWFQQKPGQPPKLLIYWASTLAYGVPSRFSGSGSGTDFTLTISSLQPEDAATYYCAGGYGGGRYAFGQGTKVEIKRTVAAPSVFIFPPSDEQLKSGTASVVCLLNNFYPREAKVQWKVDNALQSGNSQESVTEQDSKDSTYSLSSTLTLSKADYEKHKVYACEVTHQGLSSPVTKSFNRGEC
notes: copies: 2 + 2
As for B5, the “KD fold (SG1 = 1)” value is 3.2 fold.

B6: M103205H795-MY462/M103202L889-SK1 (antibody, human IgG1, kappa)
heavy: QVTLKESGPVLVKPTETLTLTCTVSGIDLSHDDISWVRQAPGKGLEWVGIISYAGSTYYASWAKGRLTISKDTSKNQVVLTMTNMDPVDTATYYCARGVPAYSHGGDLWGQGTLVTVSSASTKGPSVFPLAPSSKSTSGGTAALGCLVKDYFPEPVTVSWNSGALTSGVHTFPAVLQSSGLYSLSSVVTVPSSSLGTQTYICNVNHKPSNTKVDKKVEPKSCDKTHTCPPCPGPELLTGPSVFLFPPKPKDTLMISRTPEVTCVVVDVSDEDPEVKFNWYVDGVEVHNAKTKPREEQYNSTYRVVSVLTVLHQDWLNGKEYKCKVSNKALPKPIEKTISKAKGQPREPQVYTLPPSREEMTKNQVSLTCLVKGFYPSDIAVEWESNGQPENNYKTTPPVLDSDGSFFLYSKLTVDKSRWQQGNVFSCSVMHEALHNHYTQKSLSLSP
light: DIVMTQSPATLSLSPGERATLSCTSSQSVYHANWLSWFQQKPGQPPKLLIYWASTLAYGVPSRFSGSGSGTDFTLTISSLQPEDAATYYCAGGYGGGRYAFGQGTKVEIKRTVAAPSVFIFPPSDEQLKSGTASVVCLLNNFYPREAKVQWKVDNALQSGNSQESVTEQDSKDSTYSLSSTLTLSKADYEKHKVYACEVTHQGLSSPVTKSFNRGEC
notes: copies: 2 + 2
Turning to B6, the “KD fold (SG1 = 1)” value is 2.2 fold.

B7: M103205H795-MY460/M103202L889-SK1 (antibody, human IgG1, kappa)
heavy: QVTLKESGPVLVKPTETLTLTCTVSGIDLSHDDISWVRQAPGKGLEWVGIISYAGSTYYASWAKGRLTISKDTSKNQVVLTMTNMDPVDTATYYCARGVPAYSHGGDLWGQGTLVTVSSASTKGPSVFPLAPSSKSTSGGTAALGCLVKDYFPEPVTVSWNSGALTSGVHTFPAVLQSSGLYSLSSVVTVPSSSLGTQTYICNVNHKPSNTKVDKKVEPKSCDKTHTCPPCPEPELLTGPSVFLFPPKPKDTLMISRTPEVTCVVVDVSDEDPEVKFNWYVDGVEVHNAKTKPREEQYNSTYRVVSVLTVLHQDWLNGKEYKCKVSNKALPKPIEKTISKAKGQPREPQVYTLPPSREEMTKNQVSLTCLVKGFYPSDIAVEWESNGQPENNYKTTPPVLDSDGSFFLYSKLTVDKSRWQQGNVFSCSVMHEALHNHYTQKSLSLSP
light: DIVMTQSPATLSLSPGERATLSCTSSQSVYHANWLSWFQQKPGQPPKLLIYWASTLAYGVPSRFSGSGSGTDFTLTISSLQPEDAATYYCAGGYGGGRYAFGQGTKVEIKRTVAAPSVFIFPPSDEQLKSGTASVVCLLNNFYPREAKVQWKVDNALQSGNSQESVTEQDSKDSTYSLSSTLTLSKADYEKHKVYACEVTHQGLSSPVTKSFNRGEC
notes: copies: 2 + 2
As for B7, the “KD fold (SG1 = 1)” value came to 2 fold.

B8: M103205H795-MY459/M103202L889-SK1 (antibody, human IgG1, kappa)
heavy: QVTLKESGPVLVKPTETLTLTCTVSGIDLSHDDISWVRQAPGKGLEWVGIISYAGSTYYASWAKGRLTISKDTSKNQVVLTMTNMDPVDTATYYCARGVPAYSHGGDLWGQGTLVTVSSASTKGPSVFPLAPSSKSTSGGTAALGCLVKDYFPEPVTVSWNSGALTSGVHTFPAVLQSSGLYSLSSVVTVPSSSLGTQTYICNVNHKPSNTKVDKKVEPKSCDKTHTCPPCPDPELLTGPSVFLFPPKPKDTLMISRTPEVTCVVVDVSDEDPEVKFNWYVDGVEVHNAKTKPREEQYNSTYRVVSVLTVLHQDWLNGKEYKCKVSNKALPKPIEKTISKAKGQPREPQVYTLPPSREEMTKNQVSLTCLVKGFYPSDIAVEWESNGQPENNYKTTPPVLDSDGSFFLYSKLTVDKSRWQQGNVFSCSVMHEALHNHYTQKSLSLSP
light: DIVMTQSPATLSLSPGERATLSCTSSQSVYHANWLSWFQQKPGQPPKLLIYWASTLAYGVPSRFSGSGSGTDFTLTISSLQPEDAATYYCAGGYGGGRYAFGQGTKVEIKRTVAAPSVFIFPPSDEQLKSGTASVVCLLNNFYPREAKVQWKVDNALQSGNSQESVTEQDSKDSTYSLSSTLTLSKADYEKHKVYACEVTHQGLSSPVTKSFNRGEC
notes: copies: 2 + 2
As for B8, the “KD fold (SG1 = 1)” value was determined as 2 fold.
